From patent publication US20240053349A1
Square brackets hold non-standard residues; d marks the D form. Ends that are not written are not given here.

Columns and labels:
[1] = biological target: human plasma proteins; experiment: plasma protein binding, dialysis 4 h at 37 C, 2 µM, LC-MS/MS; control
[2] = biological target: mouse plasma proteins (CD-1 mouse); experiment: as above
[3] = biological target: Human FOLR1 on OVCAR3 cells (human) (UniProt P15328); experiment: flow cytometry on OVCAR3 cells after 1 h at 37 C, before acid wash
[4] = biological target: Human FOLR1 on OVCAR3 cells (human) (UniProt P15328); experiment: flow cytometry on OVCAR3 cells after 1 h at 37 C, after acid wash (internalized fraction)
[5] = biological target: T1, Fol-hshta-Gly-Phe-Lys(AO) (compound #3303) (not fully specified)
T1 chain: HSHTAGFK

[6] = biological target: T2, Folate-hshta-Lys(IPBA)-Gly-Phe-Lys(DOTA) (compound #1307) (not fully specified)
T2 chain: HSHTAKGFK

[7] = biological target: T3, Fol-hshta-Lys(4-MPBA)-Gly-Phe-Lys(AO) (compound #3304)
T3 chain: HSHTAKGFK

[8] = biological target: T4, Fol-hshta-PEG3-Lys(DOTA) (compound #1189) (not fully specified)
T4 chain: HSHTAK

[9] = biological target: T5, Folate-hshta-Lys(MPBA)-Gly-Phe-Lys(DOTA) (compound #6305) (not fully specified)
T5 chain: HSHTAKGFK

[10] = biological target: T6, Folate-hshta-Lys(IPBA)-M-V-Lys(DOTA) (compound #1306) (not fully specified)
T6 chain: HSHTAKMVK

[11] = biological target: T7, Folate-hshta-PEG3-Lys(MPBA)-Lys(DOTA) (compound #2809) (not fully specified)
T7 chain: HSHTAKK

[12] = biological target: T8, Fol-hshta-PEG3-Gly-Phe-Lys(DOTA) (compound #6307)
T8 chain: HSHTAGFK

[13] = biological target: T9, Folate-hshta-G-F-K(DOTA)-OH (Indi 7327, compound #7327) (not fully specified)
T9 chain: HSHTAGFK

[14] = biological target: T10, Fol-hshta-Lys(4-MPBA)-Gly-Phe-Lys(PEG3-DOTA) (compound #3302) (not fully specified)
T10 chain: HSHTAKGFK

Human FOLR1 on OVCAR3 cells (human), sequence (P15328 25-234 limits assumed): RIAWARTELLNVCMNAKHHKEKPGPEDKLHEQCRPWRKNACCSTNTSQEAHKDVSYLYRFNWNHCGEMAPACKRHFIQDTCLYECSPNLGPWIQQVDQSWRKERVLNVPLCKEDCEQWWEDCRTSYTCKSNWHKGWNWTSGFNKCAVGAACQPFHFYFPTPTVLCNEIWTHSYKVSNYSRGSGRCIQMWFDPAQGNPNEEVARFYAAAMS

Octreotide Acetate (peptide) showed a Plasma % Bound [1] of 59.4% and a Plasma % Bound [2] of 62.4%.

B1: DyLight650-labeled folate-hshta Nterm heterobiligand (peptide)
peptide: folate-[dH][dS][dH][dT][dA]
modifications: also: triazole macrocycle via Pra and Az4, places not given here, DyLight 650 label, site not given here
B1 gave a percentage of positively stained cells [3] of 73.4% and a percentage of positively stained cells [4] of 54.2%.

B2: human recombinant neprilysin (NEP) (protein)
chain: YDDGICKSSDCIKSAARLIQNMDATTEPCTDFFKYACGGWLKRNVIPETSSRYGNFDILRDELEVVLKDVLQEPKTEDIVAVQKAKALYRSCINESAIDSRGGEPLLKLLPDIYGWPVATENWEQKYGASWTAEKAIAQLNSKYGKKVLINLFVGTDDKNSVNHVIHIDQPRLGLPSRDYYECTGIYKEACTAYVDFMISVARLIRQEERLPIDENQLALEMNKVMELEKEIANATAKPEDRNDPMLLYNKMTLAQIQNNFSLEINGKPFSWLNFTNEIMSTVNISITNEEDVVVYAPEYLTKLKPILTKYSARDLQNLMSWRFIMDLVSSLSRTYKESRNAFRKALYGTTSETATWRRCANYVNGNMENAVGRLYVEAAFAGESKHVVEDLIAQIREVFIQTLDDLTWMDAETKKRAEEKALAIKERIGYPDDIVSNDNKLNNEYLELNYKEDEYFENIIQNLKFSQSKQLKKLREKVDKDEWISGAAVVNAFYSSGRNQIVFPAGILQPPFFSAQQSNSLNYGGIGMVIGHEITHGFDDNGRNFNKDGDLVDWWTQQSASNFKEQSQCMVYQYGNFSWDLAGGQHLNGINTLGENIADNGGLGQAYRAYQNYIKKNGEEKLLPGLDLNHKQLFFLNFAQVWCGTYRPEYAVNSIKTDVHSPGNFRIIGTLQNSAEFSEAFHCRKNSYMNPEKKCRVW
For B2, the “NEP cleavage (in vitro Assay Data)” value [5] was “Cleavage of -G-F-K- linker was confirmed in NEP assay”, the “NEP cleavage (in vitro Assay Data)” value [6] was “Cleavage of -G-F-K- linker was confirmed in NEP assay” and the “NEP-mediated cleavage, MALDI-TOF MS” value [6] was “At 1 nM NEP, substantial (and in the case of GFK complete) cleavage of the test article was observed by MALDI-TOF MS”. The “NEP cleavage (in vitro Assay Data)” value [7] was “Cleavage of -G-F-K- linker was confirmed in NEP assay”, the “NEP cleavage (in vitro Assay Data)” value [8] was “Confirmed to be resistant to NEP cleavage” and the “NEP cleavage (in vitro Assay Data)” value [9] was “Cleavage of -G-F-K- linker was confirmed in NEP assay”. The “NEP-mediated cleavage, NEP titration, MALDI (10 uM PCC)” value [9] was “At 10 nM NEP, complete consumption of the starting peptide was observed. At 1 nM and 0.1 nM NEP, partial cleavage was observed. Below 0.1 nM no cleavage was observed”, the “NEP cleavage (in vitro Assay Data)” value [10] was “Cleavage of -M-V-K- linker was confirmed in NEP assay” and the “NEP-mediated cleavage, MALDI-TOF MS” value [10] was “At 1 nM NEP, substantial (and in the case of GFK complete) cleavage of the test article was observed by MALDI-TOF MS”. For the same molecule, the “NEP cleavage (in vitro Assay Data)” value [11] was “Confirmed to be resistant to NEP cleavage”, the “NEP cleavage (in vitro Assay Data)” value [12] was “Cleavage of -G-F-K- linker was confirmed in NEP assay” and the “NEP cleavage (in vitro Assay Data)” value [13] was “Cleavage of -G-F-K- linker was confirmed in NEP assay”. For the same molecule, the “NEP-mediated cleavage, NEP titration (10.0 to 0 nM), 37 C 1 h, MALDI-MS” value [13] was “At 10 nM NEP, no intact Indi 7327 remains indicating complete consumption of the peptide. At 1.0 and 0.1 nM NEP, partial cleavage was observed. Below 0.1 nM NEP, no cleavage was observed” and the “NEP cleavage (in vitro Assay Data)” value [14] was “Cleavage of -G-F-K- linker was confirmed in NEP assay”.
